B1: Azoarcus group I ribozyme (parent)
chain: GUGCCUUGCGCCGGGAAACCACGCAAGGGAUGGUGUCAAAUUCGGCGAAACCUAAGCGCCCGCCCGGGCGUAUGGCAACGCCGAGCCAAGCUUCGGCGCCUGCGCCGAUGAAGGUGUAGAGACUAGACGGCACCCACCUAAGGCAAACGCUAUGGUGAAGGCAUAGUCCAGGGAGUGGCGAAAGUCACACAAACCGG

This series covers variants of B1. Put plainly: reverse-splicing fitness (ratio to wild type); higher = more active; in vitro selection; Mg2+ level not given. The essentials:
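An in vitro group I ribozyme library with randomized positions was T7-transcribed and gel-purified. In triplicate, 10 pmol RNA in EPPS pH 7.5 was reacted with 50 pmoles of a 30-nt RNA substrate for 1 h at 37 °C across several added MgCl2 levels (1–48 mM), then stopped with EDTA. Products were reverse transcribed from a substrate-complementary primer, PCR-amplified and sequenced (HiSeq 4000). Fitness is a variant's read proportion after selection over that before, normalised to wild type.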
Consider C82U A111U C150U C169U, for which the reverse-splicing fitness was 0.0102.

Regarding C82U A111U C150U C169G, the reverse-splicing fitness is 0.00892.

C82U A111U C150U C169A: the reverse-splicing fitness is 0.00856.

Consider C82U A120C, for which the reverse-splicing fitness was determined as 0.167.

C82U A111U A120U C150G C169G U176G: the reverse-splicing fitness was found to be 0.00254.

Consider C82U A111U A120U C150G C169G U176C, for which the reverse-splicing fitness is 0.00263.

As for C82U A111U A120U C150G C169G U176A, the reverse-splicing fitness amounted to 0.00411.

Turning to C82U A111U A120U C150A C169G U176A, the reverse-splicing fitness was 0.00758.

For C82U A111U A120U C150A C169G U176G, the reverse-splicing fitness stood at 0.0026.

Consider C82U A111U A120U C150A C169G U176C, for which the reverse-splicing fitness amounted to 0.00448.

As for C82U A111U A145U C150A C169A U176C, the reverse-splicing fitness stood at 0.00929.

In the case of C82U A111U A145U C150A C169A U176A, the reverse-splicing fitness is 0.0123.

Regarding C82U A111U A145U C150A C169A U176G, the reverse-splicing fitness turned out to be 0.00735.

Take C82U A111U A120U C150A C169G: the reverse-splicing fitness is 0.0044.

For C82U A111U A120U C150A C169U, the reverse-splicing fitness came out at 0.00428.

Consider C82U A111U A120U C150A C169A, for which the reverse-splicing fitness is 0.00469.

Consider C82U A111U A145C C150A C169U U176C, for which the reverse-splicing fitness came out at 0.00882.

As to C82U A111U A145C C150A C169U U176A, the reverse-splicing fitness was found to be 0.0138.

Consider C82U A111U A145C C150A C169U U176G, for which the reverse-splicing fitness worked out at 0.00574.

Turning to C82U A111U A145G C150G C169G U176C, the reverse-splicing fitness came to 0.0116.

Take C82U A111U A145G C150G C169G U176G: the reverse-splicing fitness came out at 0.00579.

With C82U A111U A145G C150G C169G U176A, the reverse-splicing fitness was determined as 0.00984.

Take C82U A111U A145C C150G C169G U176A: the reverse-splicing fitness stood at 0.00901.

On to C82U A111U A145C C150G C169G U176G, for which the reverse-splicing fitness was determined as 0.00581.

On to C82U A111U A145C C150G C169G U176C, for which the reverse-splicing fitness came out at 0.00693.

For the variant C82U A111U A145G C150A C169A U176A, the reverse-splicing fitness worked out at 0.0186.

For C82U A111U A145G C150A C169A U176G, the reverse-splicing fitness was 0.00768.

As to C82U A111U A145G C150A C169A U176C, the reverse-splicing fitness came out at 0.0216.

As for C82U A111U A145C C150G C169A U176C, the reverse-splicing fitness came to 0.0066.

On to C82U A111U A145C C150G C169A U176A, for which the reverse-splicing fitness worked out at 0.00853.

Regarding C82U A111U A145C C150G C169A U176G, the reverse-splicing fitness came out at 0.006.

For C82U A111U A145G C150U C169A U176G, the reverse-splicing fitness came to 0.00684.

In the case of C82U A111U A145G C150U C169A U176A, the reverse-splicing fitness was determined as 0.0156.

As for C82U A111U A145G C150U C169A U176C, the reverse-splicing fitness is 0.0159.

As for C82U A111U A145G C169U U176G, the reverse-splicing fitness is 0.0055.

C82U A111U A145G C169U U176A: the reverse-splicing fitness was determined as 0.0135.

Turning to C82U A111U A145G C169U U176C, the reverse-splicing fitness was 0.0145.

As to C82U A111U A120U C150U U176A, the reverse-splicing fitness came to 0.00668.

Turning to C82U A111U A120U C150U U176C, the reverse-splicing fitness worked out at 0.0088.

Consider C82U A111U A120U C150U U176G, for which the reverse-splicing fitness worked out at 0.00363.

With C82U A111U A145G C150A C169U, the reverse-splicing fitness turned out to be 0.0105.

For the variant C82U A111U A145G C150A C169G, the reverse-splicing fitness amounted to 0.00847.

In the case of C82U A111U A145G C150A C169A, the reverse-splicing fitness amounted to 0.00979.

Take C82U A111U C150G C169G U176G: the reverse-splicing fitness stood at 0.00532.

For C82U A111U C150G C169G U176A, the reverse-splicing fitness was determined as 0.00711.

C82U A111U C150G C169G U176C: the reverse-splicing fitness was determined as 0.00452.

C82U A111U A145G C150A: the reverse-splicing fitness came to 0.0405.

Regarding C82U A111U A145G C150U, the reverse-splicing fitness is 0.235.

On to C82U A111U A145G C150G, for which the reverse-splicing fitness was 0.0326.

For C82U A111U A145U C169G U176G, the reverse-splicing fitness worked out at 0.0053.

Turning to C82U A111U A145U C169G U176C, the reverse-splicing fitness was 0.0101.

For the variant C82U A111U A145U C169G U176A, the reverse-splicing fitness was 0.0101.

Take C82U A111U A145G C150G C169G: the reverse-splicing fitness amounted to 0.00754.

For C82U A111U A145G C150G C169A, the reverse-splicing fitness came out at 0.00815.

As to C82U A111U A145G C150G C169U, the reverse-splicing fitness came out at 0.00863.

On to C82U A111U C150G C169A U176G, for which the reverse-splicing fitness stood at 0.00774.

Regarding C82U A111U C150G C169A U176C, the reverse-splicing fitness is 0.00895.

As for C82U A111U C150G C169A U176A, the reverse-splicing fitness came to 0.00971.

Turning to C82U A111U C150U C169A U176A, the reverse-splicing fitness is 0.0138.

Regarding C82U A111U C150U C169A U176C, the reverse-splicing fitness came to 0.0125.

On to C82U A111U C150U C169A U176G, for which the reverse-splicing fitness came to 0.00643.

On to C82U A111U A120U C169G U176G, for which the reverse-splicing fitness is 0.00193.

Regarding C82U A111U A120U C169G U176C, the reverse-splicing fitness stood at 0.00303.

In the case of C82U A111U A120U C169G U176A, the reverse-splicing fitness turned out to be 0.00316.

In the case of C82U A111U A120U C150U, the reverse-splicing fitness turned out to be 0.0175.

Turning to C82U A111U A120U C150G, the reverse-splicing fitness was found to be 0.00645.

Turning to C82U A111U A120U C150A, the reverse-splicing fitness was 0.00701.

With C82U A111U A145C U176A, the reverse-splicing fitness was 0.0966.

Take C82U A111U A145C U176C: the reverse-splicing fitness worked out at 0.141.

For C82U A111U A145C U176G, the reverse-splicing fitness was determined as 0.0247.

Consider C82U A111U A145G C150G C169A U176A, for which the reverse-splicing fitness turned out to be 0.0125.

As for C82U A111U A145G C150G C169A U176C, the reverse-splicing fitness was determined as 0.0112.

As to C82U A111U A145G C150G C169A U176G, the reverse-splicing fitness turned out to be 0.0074.

On to C82U A111U A145U C150G U176C, for which the reverse-splicing fitness stood at 0.019.

For C82U A111U A145U C150G U176A, the reverse-splicing fitness was 0.0103.

Regarding C82U A111U A145U C150G U176G, the reverse-splicing fitness came to 0.00449.

With C82U A111U A145G C169A, the reverse-splicing fitness is 0.00999.

Turning to C82U A111U A145G C169G, the reverse-splicing fitness turned out to be 0.00856.

As for C82U A111U A145G C169U, the reverse-splicing fitness is 0.0114.

Consider C82U A111U A145C C150G C169A, for which the reverse-splicing fitness was determined as 0.00853.

For the variant C82U A111U A145C C150G C169G, the reverse-splicing fitness stood at 0.0072.

As to C82U A111U A145C C150G C169U, the reverse-splicing fitness was found to be 0.00864.

As to C82U A111U A145U, the reverse-splicing fitness came to 0.329.

The values are drawn from the RNAGym collection of RNA variant scans (doi:10.1093/molbev/msab373).
